Reference: patent US12358959B2, “Compositions and methods for oligodendrocyte development” (CHILDREN'S MEDICAL CENTER CORPORATION, priority 2016, dated 2025)

T1: human recombinant Transglutaminase 2 (TG2) (human, UniProt P21980 1-687, limits assumed)
T1 construct: also called recombinant TG2; recombinant TGM2
T1 sequence: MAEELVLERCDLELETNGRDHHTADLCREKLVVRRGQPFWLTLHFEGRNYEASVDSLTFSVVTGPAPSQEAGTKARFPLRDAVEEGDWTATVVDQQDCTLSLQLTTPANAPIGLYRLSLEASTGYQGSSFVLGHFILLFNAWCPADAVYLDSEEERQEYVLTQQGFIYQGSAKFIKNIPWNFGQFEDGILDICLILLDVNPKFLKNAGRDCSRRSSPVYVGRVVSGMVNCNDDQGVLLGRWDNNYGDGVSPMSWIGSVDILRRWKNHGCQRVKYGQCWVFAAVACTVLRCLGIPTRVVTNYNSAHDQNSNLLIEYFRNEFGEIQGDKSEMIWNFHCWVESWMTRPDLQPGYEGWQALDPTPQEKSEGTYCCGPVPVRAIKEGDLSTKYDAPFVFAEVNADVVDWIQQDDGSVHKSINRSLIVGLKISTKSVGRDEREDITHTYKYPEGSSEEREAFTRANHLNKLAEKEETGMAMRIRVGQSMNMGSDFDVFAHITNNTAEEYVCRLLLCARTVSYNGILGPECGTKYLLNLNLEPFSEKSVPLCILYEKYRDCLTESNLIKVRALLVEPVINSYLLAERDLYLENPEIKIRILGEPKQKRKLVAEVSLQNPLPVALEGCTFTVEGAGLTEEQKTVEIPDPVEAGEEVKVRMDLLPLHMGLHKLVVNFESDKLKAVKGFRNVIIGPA

T2: Transglutaminase 2 (Tgm2), mouse, endogenous (mixed glial cell lysate / microglia-derived) (mouse, UniProt P21981 2-686)
T2 construct: Endogenous protein captured from lysate, or present in mouse tissue; also called TG2; microglial TG2
T2 sequence (looked up): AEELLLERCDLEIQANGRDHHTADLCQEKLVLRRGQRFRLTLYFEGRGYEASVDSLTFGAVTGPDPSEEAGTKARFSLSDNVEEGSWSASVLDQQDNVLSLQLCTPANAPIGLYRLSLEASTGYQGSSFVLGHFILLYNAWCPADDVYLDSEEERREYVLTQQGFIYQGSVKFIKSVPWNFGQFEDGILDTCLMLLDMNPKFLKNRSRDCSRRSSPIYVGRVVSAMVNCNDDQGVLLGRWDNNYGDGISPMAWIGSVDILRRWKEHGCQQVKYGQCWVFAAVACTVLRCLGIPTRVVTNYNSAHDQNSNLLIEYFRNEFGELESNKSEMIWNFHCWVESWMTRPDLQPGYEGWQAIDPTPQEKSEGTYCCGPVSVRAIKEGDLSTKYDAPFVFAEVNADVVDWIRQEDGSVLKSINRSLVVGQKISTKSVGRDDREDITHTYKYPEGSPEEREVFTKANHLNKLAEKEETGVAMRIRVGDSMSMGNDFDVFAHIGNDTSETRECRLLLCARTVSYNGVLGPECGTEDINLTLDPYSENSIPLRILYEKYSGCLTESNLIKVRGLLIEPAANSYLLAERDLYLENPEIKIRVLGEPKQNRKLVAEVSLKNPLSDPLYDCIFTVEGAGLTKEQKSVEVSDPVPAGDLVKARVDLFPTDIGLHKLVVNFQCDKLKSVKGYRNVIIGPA


Assays:
GPR56^N = target: T3, GPR56^N (Mus musculus, UniProt Q8K209); assay: In vitro biotinylation/proteomics pull-down from mixed glial cell lysate with mass spectrometry; conditions: peptide sequences specific for binding to GPR56^N
T3 construct: Using the soluble N-terminal fragment of GPR56 (GPR56^N); made in house
Source text: To identify the ligand of GPR56 in OPCs, an in vitro biotinylation/proteomics approach was employed using single-step capture on streptavidin beads to purify the binding partner(s) of GPR56 (FIGS. 2A-2B). Proteins with more than five identified tryptic peptides in the Mass Spectrometry (MS) output from three independent experiments are listed at Table 1.
(§1) GPR56^N and GPR56^Ndel fusions proteins with either mFc or hFc tag were generated as previously described (Luo et al. Proc Natl Acad Sci USA 108, 12925-12930, 2011). BirA enzyme was used to in vitro biotinylate GPR56^N-mFc-biotag protein as previously described (De Laurenzi and Melino Mol Cell Biol 21, 148-155, 2001). Mixed glial cell lysate was incubated with biotinylated GPR56^N protein in lysis buffer [20 mM Hepes (pH 7.3), 150 mM NaCl, and 5 mM MgCl2] with protein inhibitor mixture (Roche Molecular Biochemicals) and 1% Brij 96 (Fluka). Streptavidin beads (Sigma) were used to affinity purify immunocomplexes. GPR56-associated proteins were eluted in 2×SDS loading buffer, subjected to SDS/PAGE. The whole lane was used for MS at the Taplin Biological Mass Spectrometry at Havard Medical School. MS data were searched against the mouse International Protein Index (IPI mouse 339) database using the protein identification software Mascot (v2.2.04, Matrix Sciences) (Luo et al. Proc Natl Acad Sci USA 108, 12925-12930, 2011).
as §1, with “al.,” for “al.”, “(Stacey et al., J” for “(De Laurenzi and Melino Mol Cell”, “Chem 277, 29283-29293, 2002).” for “21, 148-155, 2001).”, “(20” for “[20”, “[pH 7.3],” for “(pH 7.3),”, “MgCl2)” for “MgCl2]”

[1] = target: T1, human recombinant Transglutaminase 2 …; assay: told in words; NTF release from HEK 293T cells expressing mouse GPR56
Source text: HEK 293T cells were transiently transfected with mouse Gpr56 cDNA. […] The conditioned media were harvested, filtered, and concentrated as previously described. Equal volumes of the concentrated media were used for Western blot (Luo et al., PLOS One 9, e100043, 2014), while the cell pellets were used for GTP-Rho pull-down assay.

[2] = target: T2, Transglutaminase 2 (Tgm2), mouse, …; assay: figure legend of the summary model
GPR56 NTF (GPR56^N) [3] = target: GPR56 NTF (GPR56^N) (Mus musculus, UniProt Q8K209, DEL93-142); conditions: aa 93-142 deleted; cited from earlier work
Chain of GPR56 NTF (GPR56^N) (Mus musculus, UniProt Q8K209, DEL93-142) (Q8K209 with tags, fused parts or gaps DEL93-142): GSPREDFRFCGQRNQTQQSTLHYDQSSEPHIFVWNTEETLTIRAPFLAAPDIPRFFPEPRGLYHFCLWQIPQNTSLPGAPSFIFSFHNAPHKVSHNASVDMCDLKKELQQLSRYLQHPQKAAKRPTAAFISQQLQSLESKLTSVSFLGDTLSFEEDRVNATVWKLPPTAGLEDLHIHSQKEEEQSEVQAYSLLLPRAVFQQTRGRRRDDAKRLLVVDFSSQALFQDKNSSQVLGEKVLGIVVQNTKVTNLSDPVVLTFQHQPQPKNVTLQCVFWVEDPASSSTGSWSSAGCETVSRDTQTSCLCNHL

GPR56 NTF (GPR56^N) [4] = target: GPR56 NTF (GPR56^N) (Mus musculus, UniProt Q8K209); conditions: between amino acids 27-160; cited from earlier work

Row | Molecule | Peptide Number (Exp1) (GPR56^N; experiment 1) | Peptide Number (Exp2) (GPR56^N; experiment 2) | Peptide Number (Exp3) (GPR56^N; experiment 3) | binding result [1] | binding result [2] | Binding to GPR56^Ndel (GPR56 NTF (GPR56^N) [3]) | Binding to GPR56 NTF (GPR56^N) (GPR56 NTF (GPR56^N) [4])
1 | GPR56 (ADGRG1), mouse, on cells (oligodendrocyte precursor cells; HEK 293T cells transfected with mouse Gpr56 cDNA) (receptor, UniProt Q8K209 26-687, looked up, whole, on cells; not used here; also called OPC GPR56; OPC-GPR56) GSPREDFRFCGQRNQTQQSTLHYDQSSEPHIFVWNTEETLTIRAPFLAAPDIPRFFPEPRGLYHFCLYWSRHTGRLHLRYGKHDYLLSSQASRLLCFQKQEQSLKQGAPLIATSVSSWQIPQNTSLPGAPSFIFSFHNAPHKVSHNASVDMCDLKKELQQLSRYLQHPQKAAKRPTAAFISQQLQSLESKLTSVSFLGDTLSFEEDRVNATVWKLPPTAGLEDLHIHSQKEEEQSEVQAYSLLLPRAVFQQTRGRRRDDAKRLLVVDFSSQALFQDKNSSQVLGEKVLGIVVQNTKVTNLSDPVVLTFQHQPQPKNVTLQCVFWVEDPASSSTGSWSSAGCETVSRDTQTSCLCNHLTYFAVLMVSSTEVEATHKHYLTLLSYVGCVISALACVFTIAAYLCSRRKSRDYTIKVHMNLLSAVFLLDVSFLLSEPVALTGSEAACRTSAMFLHFSLLACLSWMGLEGYNLYRLVVEVFGTYVPGYLLKLSIVGWGFPVFLVTLVALVDVNNYGPIILAVRRTPERVTYPSMCWIRDSLVSYVTNLGLFSLVFLFNLAMLATMVVQILRLRPHSQNWPHVLTLLGLSLVLGLPWALVFFSFASGTFQLVILYLFSIITSFQGFLIFLWYWSMRFQAQGGPSPLKNNSDSAKLPISSGSTSSSRI | 12 | 11 | 9 | binds | binds |  | 
2 | Col III: collagen III (gene symbol Col3a1), ligand for GPR56 in the developing cerebral cortex (protein, UniProt P08121 155-1219, looked up) Collagen alpha-1(III) chain: QFDSYDVKSGVGGMGGYPGPAGPPGPPGPPGSSGHPGSPGSPGYQGPPGEPGQAGPAGPPGPPGALGPAGPAGKDGESGRPGRPGERGLPGPPGIKGPAGMPGFPGMKGHRGFDGRNGEKGETGAPGLKGENGLPGDNGAPGPMGPRGAPGERGRPGLPGAAGARGNDGARGSDGQPGPPGPPGTAGFPGSPGAKGEVGPAGSPGSNGSPGQRGEPGPQGHAGAQGPPGPPGNNGSPGGKGEMGPAGIPGAPGLIGARGPPGPAGTNGIPGTRGPSGEPGKNGAKGEPGARGERGEAGSPGIPGPKGEDGKDGSPGEPGANGLPGAAGERGPSGFRGPAGPNGIPGEKGPPGERGGPGPAGPRGVAGEPGRDGTPGGPGIRGMPGSPGGPGNDGKPGPPGSQGESGRPGPPGPSGPRGQPGVMGFPGPKGNDGAPGKNGERGGPGGPGLPGPAGKNGETGPQGPPGPTGPAGDKGDSGPPGPQGLQGIPGTGGPPGENGKPGEPGPKGEVGAPGAPGGKGDSGAPGERGPPGTAGIPGARGGAGPPGPEGGKGPAGPPGPPGASGSPGLQGMPGERGGPGSPGPKGEKGEPGGAGADGVPGKDGPRGPAGPIGPPGPAGQPGDKGEGGSPGLPGIAGPRGGPGERGEHGPPGPAGFPGAPGQNGEPGAKGERGAPGEKGEGGPPGPAGPTGSSGPAGPPGPQGVKGERGSPGGPGTAGFPGGRGLPGPPGNNGNPGPPGPSGAPGKDGPPGPAGNSGSPGNPGIAGPKGDAGQPGEKGPPGAQGPPGSPGPLGIAGLTGARGLAGPPGMPGPRGSPGPQGIKGESGKPGASGHNGERGPPGPQGLPGQPGTAGEPGRDGNPGSDGQPGRDGSPGGKGDRGENGSPGAPGAPGHPGPPGPVGPSGKSGDRGETGPAGPSGAPGPAGARGAPGPQGPRGDKGETGERGSNGIKGHRGFPGNPGPPGSPGAAGHQGAIGSPGPAGPRGPVGPHGPPGKDGTSGHPGPIGPPGPRGNRGERGSEGSPGHPGQPGPPGPPGAPGPCCGGGAAAIAGVGGEKSGGFSPYYG |  |  |  |  |  | abrogated Col III binding | binds
